Source: paper PMC8887132

T1: YTHDC2 YTH domain WT (Mus musculus, UniProt B2RR83 1353-1436)
T1 sequence: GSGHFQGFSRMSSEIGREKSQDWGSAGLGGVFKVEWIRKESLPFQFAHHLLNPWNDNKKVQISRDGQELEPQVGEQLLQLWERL


Target: T1, YTHDC2 YTH domain WT
Test: fluorescence anisotropy

| Binder | Kd [µM] |
| --- | --- |
| CCGGACUGU (ssRNA, m6A at position 5) [m6A-modified RNA probe] | 4.1 ± 1.4 |
| CCGGACUGU (ssRNA) [unmodified RNA probe] | 54 ± 26 |
